PMC5962103, “SHOC1 is a ERCC4-(HhH)2-like protein, integral to the formation of crossover recombination intermediates during mammalian meiosis”

Target: SHOC1 570-1111 (Homo sapiens, UniProt Q5VXU9 570-1111)
Test: EMSA; 2 mM Mg2+; 20 mM Tris-HCl pH 7.4, 1 mM DTT, 2 mM MgCl2, 100 mM NaCl, 10 uM 32P-DNA (so in the source), 20 ul, 10 min at 37 C; 8% PAGE in 1x TAE
Settings: protein: recombinant, label: 5'-32P on #1

Sequence of SHOC1 570-1111 (Q5VXU9 570-1111): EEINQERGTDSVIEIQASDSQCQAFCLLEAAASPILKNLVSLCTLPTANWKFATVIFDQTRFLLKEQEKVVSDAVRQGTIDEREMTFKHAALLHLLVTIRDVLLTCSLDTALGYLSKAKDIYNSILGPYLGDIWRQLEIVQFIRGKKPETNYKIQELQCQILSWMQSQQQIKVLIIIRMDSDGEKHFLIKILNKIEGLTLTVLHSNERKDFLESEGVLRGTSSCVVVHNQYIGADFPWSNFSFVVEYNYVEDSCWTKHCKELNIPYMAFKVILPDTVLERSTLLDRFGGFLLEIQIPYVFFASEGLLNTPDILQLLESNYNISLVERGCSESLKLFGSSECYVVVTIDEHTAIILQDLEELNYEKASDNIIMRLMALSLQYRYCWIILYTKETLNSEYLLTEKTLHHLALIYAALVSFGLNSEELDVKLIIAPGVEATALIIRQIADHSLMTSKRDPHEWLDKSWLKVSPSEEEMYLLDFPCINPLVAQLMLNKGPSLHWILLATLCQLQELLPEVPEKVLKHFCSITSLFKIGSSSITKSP

| Binder | binding result (single strand, 60 nt) | binding result (D-loop 1:2 2:3, invading strand 3 pairs by its 5' 20 nt, 3' 20 nt tail) |
| --- | --- | --- |
| single-stranded DNA (#1) (ssDNA) DNA: ACGCTGCCGAATTCTACCAGTGCCTTGCTAGGACATCTTTGCCCACCTGCAGGTTCACCC | binds |  |
| D-loop (#1, #6, #7) (structured_DNA) DNA 1: ACGCTGCCGAATTCTACCAGTGCCTTGCTAGGACATCTTTGCCCACCTGCAGGTTCACCC DNA 2: GGGTGAACCTGCAGGTGGGCAGGAAGGCAAAATGCCGCAACTGGTAGAATTCGGCAGCGT DNA 3: TTGCGGCATTTTGCCTTCCTCGGCCAGTGAATTCGAGCTC |  | binds |
